Source: the nanobody polyreactivity screen of Harvey et al. (2022)

experiment: yeast display, Sf9 membrane polyspecificity reagent, FACS + sequencing; frameworks hold sequencing errors
Method in brief: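 Polyreactivity labels are assigned by the sorting gate from which each nanobody was recovered. The gates were low and high (top ~1%), set on anti-HA fluorescence for expression and streptavidin fluorescence for reagent binding. Before sorting, galactose-induced (36–48 hours) yeast display cells were stained for 1 hour at 4 °C with 10% biotinylated, detergent-solubilized Sf9 membrane reagent.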

Row | Sequence | polyreactivity (PSR sort gate)
1 | QVQLVESGGGLVQAGGILRLSCAASGRTFERNAMGWYRQSPGKEREFVAAITEIGGSTYYADSVKGRFTISRDNAKNTVYLQMNSLKPEDTAVYYCAKDGTYSPYDYWGQGTQVTVSS | low polyreactivity
2 | QVQLVESGGGLVQAGGSLRLSCAASGFTFSSYAMGWYRQAPGKERELVAAISTRGGSTYYADSVKGRFTISRDNAKNTVYLQMNSLNPEDSAVYYCAAPVNTSGDEYGYWGQGTQVTVSS | low polyreactivity
3 | QVQLVESGGGLVQAGGSLRLSCASSGRNFQKYAMGWYRQAPGKERELVAAISSGDSTYADSVKGRFTISRDNAKNTVYFQMNSLKPEDTAVYYCAVDLYDPWWYSYIGEYEYWGQGTQVTVSS | low polyreactivity
4 | QVQLVESGGGLVQAGGSLRLSCAASGIIFRNNAMGWYRQAPGKEREFVARISKRGGSTYYADSVKGRFTISRDNAKNTVYLQMNSLKPEDTAVYYCAKGYGSGSYLYDYWGQGTQVTVSS | high polyreactivity
5 | QVQLVESGGGLVHAGGSLRLSCAASGLTFYYYDMGWYRQAPGKERELVAAITRRGGSTYYADSVKGRFTISRDNAKNTVYLQMNSLKPEDTAVYYCNALSRTVSHEADDYWGQGTHVTVSS | high polyreactivity
6 | QVQLVESGGGLVQAGGSLRLSCAASGRTFRRYTMGWYRQAPGKERELVAAITSGGRTNYADSVKGRFTISRDNAKNTVYLQMNSLKPEDTAVYYCNAQNEIWRVTFSPFDRWGYDYWGQGTQVTVSS | low polyreactivity
7 | QVQLVESGGGLVQAGGSLRLSCAASGFIFSYNAMGWYRQAPGSERELVAAITRRTASTYYADSVKGRFTISRDNAKNTVYFQMNSLKPEDTAVYYCAADSSLKRPYYAGYYYWGQGTQVTVSS | high polyreactivity
8 | QVQLLESGGGLVQAGGSLRLSCAASGFTFNPYAMGWYRQAPGKERELVARISRGTSTNYADSVKGRFTISRDNAKNTVYLQMNSLKPEDTAVYYCAASYGSFHTYLDYNYWGQGTQVTVSS | low polyreactivity
9 | QVQLVESGGGLVQAGGSLRLSCAASGSIFRGYAMGWYRQAPEKERELVAAISRRGGSTYYADSVKGRFTISRDNAKNTVYLQMNSLKPEDTAVYYCAKDGTGAGTYDYWGQGTQVTVSS | low polyreactivity
10 | QVQLVESGGGLVQAGGRLRLICAASGSTFRANIMRWSRQAPGKERELVAAITSGGGSTYYADSVKGRFTISRDNAKNTVYLQMNSLKPEDTAVYYCAARIYHDIDTRSYYWGQGTQVTVSS | high polyreactivity
11 | QGQLVESGGGLVQAGGSLRLSCAASGSTYLGNDMAWYIQAPGKERELVATITGSSGSTYYADSVKGRFTISRDNAKNTVYLQMNSLKPEDTAVYYCNTVYNYWDCYDYWGQGTQVTVSS | low polyreactivity
12 | QVQLVESGGGLVQAGGSLRLSCAASGSIFRGNAMGWYRQAPGKERELVAAITRSGGRTYYADSVKGRFTISRDNANNTVYLQMNCLKPEDTAVYFCAADYPYGSPTHFDYWGQGTQVTVSS | high polyreactivity
13 | QVQLVESGGGLVQAGGSLRLSCAASGSIFSIYAMGWYRQAPGKERDFVASITVTDGSTYYADSVKGRFTISRDIAKNTVYLQMNSLKPEDTAVYYCFADGWYALYEWLAVSGYYWGQGTQVTVST | low polyreactivity
14 | QVQLVESGGGLVQAGGSLRLSCAASGRIFWDYAMGWYRQAPGKERELVAGISYSGGSTSYADSVKGRFTISRDNAKNTVYLQMNSLKPEDTAVYYCAARPSGTFFRDYDYWGQGTQVTVSS | low polyreactivity
15 | QVQLVESGGGLVQAGGSLRLSCAASGFTFKAYAMGWYRQAPGKERELVAAITKSGGRTFYADSVKGRFTISRDTAKNTVYFQMNSLKPEDTAVYYCAASYTVYYWGQGTQVTVSS | high polyreactivity
16 | QVQLVESGGGLVQAGGSLRLSCAASGFTFRRNAMGWYRQAPGKERELVAAINVRDGSTYYADSVKGRFTISRDNAKNTVYLQMNSLKPEDTAVYYCAAEFFQGYYWYYYWGQGTQVTVSS | high polyreactivity
17 | QVQLVESGGGLVQAGGSLRLSCAASGSIFQGYAMGWYRQAPGKERELVAGITSSGGSTHYADSVKGRFTISRDNAKNTVYLQMNSLKPEDTAVYDYWGQGTQVTVSS | low polyreactivity
18 | QVQLVESGGGLVQAGGSLRLSCAASGRTFYYNAMGWSRQAPGKEREFVARITRSGTNTYYADSVKGRFTISRDNAKNTVYLQMNSLKPEDTAVYYCARRGTSSYRRYWLDSASNMDYWGQGTQVTVSS | high polyreactivity
19 | QVQLVESGGGLVQAGGSLRLSCAASGRTFWFNAMGWYRQAPGKARELVAAISGITGSTYYADSVKGRITISRDNAKNTVYLQMNSLKPEATAVYYCATNRRGTWDYDYWGQGTQVTVSS | low polyreactivity
20 | QFQLVESGGGLVQAGGSLRLSCAASGSTFIYYAMGWYRQAPGKDRELVAAISGCGASTYYADSVKGGFTISRDNAKNTVYLQMNSLKPEDTAVYYCHFYRWRGYDYWGQGTQVTVSS | high polyreactivity
21 | QVQLVESGGCLVQAGGSLRLSCAASGRRVQTYAMGWYRQAPRKERELVAAISIRGGSTYYADSVKGRFTISRDNAKNTVYLQKNSLTPEDTAVYYCNALYGRQIVDYEYWGQGTQVTVSS | low polyreactivity

Row | Sequence | polyreactivity (PSR sort gate)
22 | QVQLVESGGGLVQAGGSLRLSCAASGRTFYFYAMGWYRQAPGKERELVAAISWTGGITYYADSVKGRFTISRDNAKNTVYLQMNSLKPEDTAVYYCAAGYYYKVYWGQGTQVTVSS | low polyreactivity
23 | QVQLVESGGGLVQAGGSLRLSSAASGGSFKRYVMVWYRQAPGKERELVAAITWSGGSTYYADSVKGRFTISRDNAKNTVYLQMNSLKPEDTAVYYCNVVTRWVTAAGYDYWGQGTQVTVSS | high polyreactivity
24 | QVQLVESGGGLVQAGGSLRLSCAASGRIFDPYAMGWYRQAPGKERELVAAIDWSDGGTYYADSVKGRFTISRDNAKNTVYLQMNSLKPEDTAVYYCAADLLDISYYDGMDYWGQGTQVTVSS | low polyreactivity
25 | QVQLVESGGGLVQAGGSLRLSCAASGSILHPNGMGWYRQATGKERELVAAITINGDSTYYADSVKGRFTISRDNAKNTVYLQMNCLKPEDTAVYYCAVDGWPTGWYYYWGHGTQVTVSS | low polyreactivity
26 | QVQLVESGGGLVQAGGSLRLSCAASGRTFFHYAMGWYRQAPGKERELVAAISYRGTSTYYADSVKGRFTISRDNAKNTVYLQMISLKPEDTAVYYCNAYSTRCGWSYRGDSWGQGTQVTVSS | high polyreactivity
27 | QVQLVETGVGLVQAGGSLRLSSAASGSIFFTYTMGRYRQAPGKERELVATITYGGGGTYYADSVKGRFTISRDNAKNTVYLQMNSLKAEDTAVYYCAKDHATVLSRWYRGMDYWGQGTQVTVSS | low polyreactivity
28 | QVQLVESGGGLVQAGGSLRLSCAASGYTFVVYAMGWYRQAPGKERELVAGITRGSSTYYADSVKGRFTISRDNAKNTVYLQMNSLKPEDTAVYYCARGYTWFYAVWPEYDYWGQGTQVTVSS | high polyreactivity
29 | QVQLVESGGGLVQAGGSLRLSCAASGRIFRFYVMGWYRQAPGKERELVAAISDSSPSTYYADSVKGRFTISRDNAKKTVYLQMNSLKPEDTAVYYCAARYPPYWSYDYDYWGQGTQVTVSS | low polyreactivity
30 | QVQLVESGGGLVQAGGSLRLSCAASGFTFEWNTMGWYRPAPGKERELVARINWSSGRTYYADSVKGRFTISRDNAKNTVYLQMNSLKPEDTAVYYCAADTYDWRTGYKDDYWGQGTQVTVSS | high polyreactivity
31 | QVQLVESGGGLVQAGGSLRLSCAASGRTFRFYAMGWYRPAPGKERELVAGITRSGGGTYYADSVKGRFTISRDNAKNTVYLQMNSLKPEDTAVYYCAATHAYLGYGYWGQGTQVTVSS | high polyreactivity
32 | QVQLVESGGGLDQAGGSLRLSCAASGFTFYVYTMGWYRQAPGKERELVARITSRAGRTYYADSVKGRFTISRDNAKNTVYLQMNSLKPEDTAVYYCNTRDFSGYVHALSLYDYWGQGTQVTVSS | high polyreactivity
33 | QVQLVESGGGLVQAGGSLRLSCAASGRTFRRNAMGWYRQAPGKEWELVAAISKSGGRTYYADSVKGRFTISRDNAKNTVYLQMNSLKPEDTAVYYCAARGYGYIPDNGDYDYWGQGTQVTVSS | high polyreactivity
34 | QVHLVESGGGLVQAGGSLRLSCADSGTTFHKYAMGWYRQAPGTERELVARISVGGDSTYYADSVKGRFTISRDNAKNTDYLQIISLKPEDTAVYYCAKVRYLVFLYPPRYYYWGQGTEVTVSS | low polyreactivity
35 | QVQLVESGGGLVQAGGSLRLSCAASGSTFYFYAMGWYRQAPGKERELVAAITGSGGSTYYADSVKGRFTISRDNAKNTVYLQMNSLKPEDTAVYYCAARFSYWKTKRAYDWGQGTQVTVSS | high polyreactivity
36 | QVQLVESGGGLVHDGGSLRLSCAASGSILWPYAMGLYRQAPGKERELVAAISTGGSTYYADSVKGRFTISRDNANNTVYLQRNSLKPEDTAVYYCAAFVDYSVYFGGGYWGQGTQVTVSS | low polyreactivity
37 | QVQLVESGGGLVQAGASLRLSCAASGITLYLYDMGWYRQAPGKERELVASITSDGSTDYADSVKGRFTISRDNAKNTVFLQMNSLKPEDTAVYYCIARVTYSWYRFGRSGDDSWGQGSQVTVSS | low polyreactivity
38 | QVQLVESGGGLVQAGGSLRLSCAASGRIFGRYVMGWYRQAPGKERELVARIRRNGGSTYYADSVKGRFTISRDNAKNTVYLQMNSLKPDDTAVYDCAAESYDTWRRYESWGQGTQVTVSS | high polyreactivity
39 | QVQLVESGGGLVQAGGSLRLSCAASGIIYITNAMGWYRQAPGKERELVAAISSTVSTNYADSVKGRFTISRDNAKNTVYLQMNSLKPEDTAVYYCAAEWGLTQGESIYDYWGQGTQVTVSS | low polyreactivity
40 | QVQLVESGGGLVQAGGSLRLSCAASGRIFAFYVMGWYRQAPGKERELVAAITSGGNTNYADSVKGRFTISRDNAKNTVYLQMNSLKPEDTAVYYCARAWLGQYTLGTYYYWGQGTQVTVSS | low polyreactivity
41 | QVQLVESGGGLVQAGGSLRLSFAASGRIFGWYAIGGYRKAAGTEREVVAAISTSGVRTYYADSVKGRFTISRDNAKITVYLQMKSLKPEDTAVYYCAARYIRAYSRDYWGQGTQVTVSS | high polyreactivity
